According to PMC3017675 (Journal of molecular biology, 2010):

B1: KasA peptides Group A (spots A05-A08) (peptide)
peptide: GGFPSVVVTAVTATTSIS
B2: KasA peptides Group G (spots F01-F04) (peptide)
peptide: RGAKPLARLLGAGITSDA
B3: KasA peptides Group H (spots F12-F17) (peptide)
peptide: APAADGVRAGRAMTRSLELAGL
B4: KasA peptides Group I (spots G20-G24) (peptide)
peptide: AVGALESVLTVLTLRDGVIP

Tests used:
[1] = target: full-length Mycobacterium tuberculosis GroEL1 (M. tuberculosis H37Rv) (UniProt P9WPE9); experiment: SEC
[2] = target: full-length M. tuberculosis GroEL2 (M. tuberculosis, UniProt P9WPE7 1-540); experiment: peptide or protein array
Chain of full-length M. tuberculosis GroEL2 (P9WPE7 whole entry): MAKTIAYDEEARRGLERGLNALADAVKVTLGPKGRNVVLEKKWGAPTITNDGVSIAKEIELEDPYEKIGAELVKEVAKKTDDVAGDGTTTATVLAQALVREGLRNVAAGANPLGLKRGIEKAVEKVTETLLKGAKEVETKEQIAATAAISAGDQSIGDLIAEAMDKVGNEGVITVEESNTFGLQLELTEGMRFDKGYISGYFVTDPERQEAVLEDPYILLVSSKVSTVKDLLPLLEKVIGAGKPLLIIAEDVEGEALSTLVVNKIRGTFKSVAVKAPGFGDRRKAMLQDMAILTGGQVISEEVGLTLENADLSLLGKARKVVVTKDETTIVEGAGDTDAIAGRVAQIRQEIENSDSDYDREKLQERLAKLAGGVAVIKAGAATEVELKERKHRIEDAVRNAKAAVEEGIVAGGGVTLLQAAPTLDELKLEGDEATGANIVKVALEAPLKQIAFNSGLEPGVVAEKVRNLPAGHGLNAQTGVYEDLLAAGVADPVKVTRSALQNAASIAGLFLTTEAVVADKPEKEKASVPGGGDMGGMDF

Row | Molecule | stoichiometry N [1] | binding result [2]
1 | full-length Mycobacterium tuberculosis GroEL1 (from UniProt P9WPE9 1-539) (natural protein) | 2 | –
2 | B1 | – | binds
3 | B2 | – | binds
4 | B3 | – | binds
5 | B4 | – | binds
